Experimental findings from patent publication US20180327462A1 are described below.

The experiment concerns the target SH2-GFP-tail substrate with the SH2 domain of human Abl1 (human; yeast) (UniProt P00519). As to the kind of experiment: cell-based or functional assay.
Chain of UniProt P00519 (P00519 other isoform, or with tags, fused parts or gaps, form in doubt): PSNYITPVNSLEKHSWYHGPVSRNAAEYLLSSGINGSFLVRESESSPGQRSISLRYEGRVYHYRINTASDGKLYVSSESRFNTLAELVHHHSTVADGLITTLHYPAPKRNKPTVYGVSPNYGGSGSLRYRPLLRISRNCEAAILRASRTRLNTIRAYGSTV

“UbL-mB^HA4 degradon (yeast Rad23 UbL domain fused N-terminally to the HA4 monobody) (from UniProt P32628 1-77) (designed binder)” yielded a substrate turnovers per degradon molecule (10 nM degradon, varied substrate, GFP fluorescence) of 5 times. In turn, “FLAG-hUbL-mB^HA4 (binding degradon; human Rad23b UbL domain fused N-terminally to the HA4 monobody) (from UniProt P54727 1-83) (designed binder)” yielded a substrate amount in cell lysate (SDS-PAGE, Typhoon fluorescence, ImageJ) of 4 fold.
